Target: microtubules (paclitaxel-stabilised polymerised tubulin) (human (endogenous in HEK293T)) (UniProt P68363)
Assay: co-sedimentation; cell-based MT binding assay: lysate of transfected HEK293T cells in PEM buffer (80 mM PIPES pH 6.8, 1 mM EGTA, 1 mM MgCl2) with 0.1% Triton X-100, 2 mM GTP, 20 uM paclitaxel; 37 °C 30 min; 100,000 g 30 min; tau in supernatant and pellet by Western blot; percent MT-bound = pellet/(supernatant+pellet)*100

Sequence of UniProt P68363 (P68363 whole entry, chain 1 of 2): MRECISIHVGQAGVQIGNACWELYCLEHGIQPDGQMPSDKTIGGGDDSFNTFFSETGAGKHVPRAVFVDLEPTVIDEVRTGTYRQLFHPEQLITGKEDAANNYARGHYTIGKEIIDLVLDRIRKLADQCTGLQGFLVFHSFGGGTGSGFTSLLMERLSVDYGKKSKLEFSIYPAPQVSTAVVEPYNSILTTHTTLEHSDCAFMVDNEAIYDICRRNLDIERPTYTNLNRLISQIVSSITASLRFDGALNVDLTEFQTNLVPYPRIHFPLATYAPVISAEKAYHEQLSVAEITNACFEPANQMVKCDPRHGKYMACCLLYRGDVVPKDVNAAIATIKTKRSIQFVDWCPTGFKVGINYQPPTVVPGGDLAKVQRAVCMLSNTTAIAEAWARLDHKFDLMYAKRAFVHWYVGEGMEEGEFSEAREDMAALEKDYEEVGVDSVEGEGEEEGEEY
Sequence of UniProt P68363 (P07437 whole entry, chain 2 of 2, further chain): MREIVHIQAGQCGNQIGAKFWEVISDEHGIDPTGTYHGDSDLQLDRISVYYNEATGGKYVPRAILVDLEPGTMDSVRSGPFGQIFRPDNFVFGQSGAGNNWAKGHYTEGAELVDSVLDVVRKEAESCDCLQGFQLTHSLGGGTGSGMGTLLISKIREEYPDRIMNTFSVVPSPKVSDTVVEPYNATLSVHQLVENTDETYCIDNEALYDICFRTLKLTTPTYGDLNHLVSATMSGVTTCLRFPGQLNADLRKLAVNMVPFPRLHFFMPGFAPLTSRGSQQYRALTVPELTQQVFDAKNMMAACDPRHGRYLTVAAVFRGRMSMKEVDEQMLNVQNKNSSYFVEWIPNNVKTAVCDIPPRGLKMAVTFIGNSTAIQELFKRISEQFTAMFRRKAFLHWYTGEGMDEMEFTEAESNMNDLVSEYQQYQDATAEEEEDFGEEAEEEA

2N4R human tau S208E phosphomimetic (from UniProt P10636-8 1-441) (natural protein)
percent of tau bound to MTs: 41%
